We go through three substances from paper PMC7804308.

Assay [1] has as its target BG505 SOSIP.664 gp140 trimer (HIV). The experiment in a line: SPR.
Assay [2] deals with WT Malaysian banana lectin (Malay BanLec) (Musa acuminata ssp. malaccensis). The experiment in a line: crystal structure; WT and F84T Malay BanLec each at 5 mg/mL in 10 mM HEPES pH 7.5, 150 mM NaCl; crystals grown at 20 °C from ammonium sulfate; dimers in the asymmetric unit.
In assay [3] the target is F84T Malay BanLec (Musa acuminata ssp. malaccensis). Described as above.

Consider “griffithsin (GRFT) (from UniProt P84801 1-121) (natural protein)”, for which, in assay [1], the Kd is 0.137 nM, the koff came to 0.00074 s⁻¹ and the kon was 5.56e+06 M⁻¹ s⁻¹.

As for “WT Malaysian banana lectin (Malay BanLec) (natural protein)”, the stoichiometry N in assay [2] worked out at 2. Moreover, in assay [1], the Kd amounted to 0.122 nM, the koff came to 0.00014 s⁻¹ and the kon came out at 1.33e+06 M⁻¹ s⁻¹.

Substance F84T Malay BanLec (natural protein) returned a stoichiometry N in assay [3] of 2. In assay [1], this substance gave a Kd of 0.368 nM, a koff of 0.000266 s⁻¹ and a kon of 720000 M⁻¹ s⁻¹.
